We go through six compounds from patent US20240116987A1, “POLYPEPTIDE INHIBITORS OF LACTATE DEHYDROGENASE ACTIVITY FOR USE IN CANCER THERAPY” (UNIVERSITÉ CATHOLIQUE DE LOUVAIN, priority 2021, published 2024).

Data set [1] can be described thus: NanoDSF thermal denaturation of LDH-H variants. To be noted: for Ratio 350/330 nm (initial): nanoDSF fluorescence ratio; for Tm: means ± SEM, n=6. It is filed as physicochemical, human. As for the experimental part: NanoDSF was performed following previously described by Thabault et al. (see above). • a) Variant evaluation
Solutions of proteins (LDH-H, LDH-Htr, or variants), stored in a 50 mM sodium phosphate, 100 mM NaCl and 20% glycerol, pH 7.6, were evaluated on a Tycho NT.6 device (NanoTemper Technologies®) using concentrations […]. According to standard manufacturer's procedures, samples were poured into capillaries and heated up to 95° C. in 3 min, while following fluorescence emission at 330 and 350 nm. Melting temperatures were extracted from the derivative of the 350/330 nm fluorescence ratios upon increasing temperature. • b) Peptide evaluation
A general note: DSF heats the sample and reads unfolding from a dye or from intrinsic fluorescence.

Data set [2] can be described thus: Chemical denaturation with guanidinium-HCl followed by intrinsic fluorescence. The conditions noted are these: protein 1.3 μM, means ± SEM, n=6. It is filed as physicochemical, human. As for the experimental part:
(§1) All spectrophotometric experiments were performed with opaque 96-well plates using a Spectramax m2e spectrophotometer (Molecular Devices) following previously described in Thabault et al. (see above).
(§2) Intrinsic fluorescence assays: full tryptophan fluorescence spectra were recorded using an excitation wavelength of 286 nm and recording the emission spectra from 320 to 400 nm at room temperature. The raw fluorescence of each experiment was subtracted to a corresponding control experiment without the protein. Experiments were performed in a 50 mM sodium phosphate and 100 mM NaCl, pH 7.6, buffer. For dissociation in subunits, increasing amounts of guanidinium-HCl ranging from 0.3 M to 2 M were put in contact with the studied proteins (1.3 μM), and fluorescence spectra were recorded afterwards.

A short description of data set [3]: Intrinsic tryptophan fluorescence spectra. It is filed as physicochemical, human. The conditions noted are these: 1.3 μM, λexc 286 nm, n=6. The protocol:
as §1, §2

Data set [4] addresses T1, dimeric LDH-Htr (Homo sapiens, UniProt P07195).
T1 construct: using the model of dimeric LDH (LDH-Htr); made in house; host or cells: E. coli Rosetta (DE3)
Put plainly: NanoDSF thermal shift of dimeric LDH-Htr with peptide. Type of data set: binding. To be noted: LDH-Htr 15 μM, polypeptide 500 μM, n=3. The protocol:
(§3) NanoDSF was performed following previously described by Thabault et al. (see above). • a) Variant evaluation Solutions of proteins (LDH-1, LDH-5 or LDH-Htr) with peptides were evaluated on a Tycho NT.6 device (NanoTemper Technologies®). Evaluations were performed in a 50 mM sodium phosphate and 100 mM NaCl pH 7.6 buffer. According to standard manufacturer's procedures, samples were poured into capillaries and treated as above.

Data set [5] has as its target T1, dimeric LDH-Htr. Put plainly: NMR WaterLOGSY with dimeric LDH-Htr. It is filed as binding. To be noted: LDH-Htr 15 μM, LP-22 400 μM. As for the experimental part: Human LDH-H (full length and truncated)-6His proteins for ^1D NMR were expressed and purified from E. coli, as described above. All experiments were performed on an […] system equipped with a broadband cryoprobe (Bruker®) following a previously described in Thabault et al. (see above).
For WaterLOGSY NMR studies, samples were prepared in 10% D2O containing 50 mM sodium phosphate buffer, pH 7.6, and 100 mM NaCl. The concentration of LDHs was ranging from 15 to 20 μM of monomer. Ligand binding was detected using a WaterLOGSY ephogsygpno.2 avance-version sequence with a 1 s mixing time. Water signal suppression was achieved using an excitation-sculpting scheme, and a 50 ms spinlock was used to suppress protein background signals.

The target of another data set is tetrameric LDH-5 (Homo sapiens, UniProt P00338). As to the kind of experiment: NanoDSF thermal destabilization of tetrameric LDH-5 by peptide. Type of data set: binding. The protocol:
as §3

The target in the next data set is T2, LDH-Htr (Homo sapiens, UniProt P07195).
T2 construct: using the model of dimeric LDH (LDH-Htr); made in house; host or cells: E. coli Rosetta (DE3)
T2 sequence (P07195 21-334): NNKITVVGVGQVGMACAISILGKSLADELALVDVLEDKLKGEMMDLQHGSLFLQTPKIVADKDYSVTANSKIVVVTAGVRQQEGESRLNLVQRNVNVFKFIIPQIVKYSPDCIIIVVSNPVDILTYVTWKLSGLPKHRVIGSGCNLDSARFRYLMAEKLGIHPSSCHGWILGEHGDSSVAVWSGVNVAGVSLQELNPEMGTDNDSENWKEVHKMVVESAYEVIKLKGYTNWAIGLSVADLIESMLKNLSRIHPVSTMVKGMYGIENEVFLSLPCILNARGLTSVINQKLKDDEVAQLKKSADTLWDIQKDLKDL
Put plainly: Microscale thermophoresis (MST) binding to labelled LDH-Htr. To be noted: 1.5 s MST on time, n=3, labelled LDH-Htr 100 nM. As for the experimental part:
MST measurements were performed on a Nanotemper® Monolith NT.115 instrument (NanoTemper Technologies®) using Red-dye-NHS fluorescent labelling. LDH-Htr purified to homogeneity was labelled with the Monolith Red-dye-NHS 2nd generation labelling dye (Nanotemper Technologies®), according to the supplied protocol. Measurements were performed in 50 mM sodium phosphate, pH 7.6, and 100 mM NaCl containing 0.01% Tween-20 in standard-treated capillaries (NanoTemper Technologies®). The final concentration of proteins in the assay was 100 nM. Ligands were titrated in 1:1 dilutions following manufacturer's recommendations. Experiments were performed in triplicates using 40% LED power, high MST power, […] and Laser off time 3 s. Poypeptides were evaluated for their thermophoretic pattern, and Kd's were extracted from raw data at a 1.5 s MST on time following the manufacturer's instructions.
(In general: Microscale thermophoresis detects binding through changes in fluorescence in a small temperature gradient.)

Bounds are passed on as bounds.

T1 sequence (P07195 21-334): as above

For orientation: Tm means the temperature at which the thermal transition is half complete. Usually EC50 stands for the concentration that produces a half-maximal response. With “L71A: LDH-H recombinant alanine variant L71A of SEQ ID NO: 2”, in data set [1], the NanoDSF denaturation pattern entry is “a lower initial ratio and a red-shift”; the “Ratio 350/330 nm (initial)” value was found to be 0.90. In data set [1] (nanoDSF), the “Tm difference versus LDH-Htr” value came to 10 °C and the Tm worked out at 67.1 ± 0.1 °C. In addition, the concentration giving a half-maximal response (EC50) in data set [2] was less than 100000 µM. For the same compound, in data set [3], the “Tryptophan fluorescence intensity compared with LDH-1” value was “not L71A”.
A word on the Kd: it is the constant that tells how readily two partners part at equilibrium. Higher therefore signals weaker binding. In the case of `CSCC[C@H](NC(=O)[C@H](CCC(=O)O)NC(=O)CNC(=O)[C@H](CCCCN)NC(=O)[C@H](CC(C)C)NC(=O)[C@H](CCCCN)NC(=O)[C@H](CC(=O)O)NC(=O)[C@H](CCC(=O)O)NC(=O)[C@@H](N)CC(C)C)C(=O)N[C@@H](CCSC)C(=O)N[C@@H](CC(=O)O)C(=O)N[C@@H](CC(C)C)C(=O)N[C@@H](CCC(N)=O)C(=O)N[C@@H](Cc1c[nH]cn1)C(=O)NCC(=O)N[C@@H](CO)C(=O)N[C@@H](CC(C)C)C(=O)N[C@@H](Cc1ccccc1)C(=O)N[C@@H](CC(C)C)C(=O)N[C@@H](CCC(N)=O)C(=O)N[C@H](C(=O)N1CCC[C@H]1C(N)=O)[C@@H](C)O` [LP-22], at dimeric LDH-Htr [4], the “ΔTm of dimeric LDH-Htr (stabilization)” value came out at 2.8 °C. Further, the “WaterLOGSY saturation transfer with dimeric LDH-Htr” value on dimeric LDH-Htr [5] is “undergoes a saturation transfer”. The “Destabilizing effect on LDH-5 compared to LDH-1” value on tetrameric LDH-5 (nanoDSF, tetrameric LDH-5 vs LDH-1) is given as “higher destabilizing effect”. This compound returned a Kd at LDH-Htr of 156 µM.
In the case of “E62A: LDH-H recombinant alanine variant E62A of SEQ ID NO: 2”, in data set [1], the NanoDSF denaturation pattern result is listed as “denaturation patterns comparable to dimeric LDH-Htr” and the “Ratio 350/330 nm (initial)” value is 0.95. For the same compound, the Tm in data set [1] (nanoDSF) is 58.9 ± 0.1 °C. Also, the EC50 in data set [2] is less than 100000 µM. Also, the “Tryptophan fluorescence intensity compared with LDH-1” value in data set [3] was “decays in fluorescence intensity characteristic of the dimeric forms of LDHs”.
For the compound “LDH-Htr: dimeric model of LDH-H obtained by truncating its N-terminal tetramerization domain [reference compound]”, in data set [1], the NanoDSF denaturation pattern entry is given as “concentration-dependent destabilization” and the “Ratio 350/330 nm (initial)” value was 0.87. In addition, the Tm in data set [1] (nanoDSF) came out at 57.5 ± 0.1 °C. The compound also displayed an EC50 in data set [2] of less than 100000 µM.
On to “F72A: LDH-H recombinant alanine variant F72A of SEQ ID NO: 2”, for which, in data set [1], the NanoDSF denaturation pattern result was “denaturation patterns comparable to dimeric LDH-Htr” and the “Ratio 350/330 nm (initial)” value came to 0.94. Further, the Tm in data set [1] (nanoDSF) is 53.9 ± 0.1 °C. Further, in data set [2], the EC50 is less than 100000 µM. Besides, the “Tryptophan fluorescence intensity compared with LDH-1” value in data set [3] is “decays in fluorescence intensity characteristic of the dimeric forms of LDHs”.
For the compound Ac-GEMMDLQHGSLFLQTP-NH2 [GP-16], at tetrameric LDH-5 (LDH-5 300 nM, n=3, read-out: EC50 of ΔTm (destabilization) of tetrameric LDH-5), the EC50 worked out at 262 µM. Further, binding on LDH-Htr was characterised by a dissociation constant (Kd) of 240 µM.
